B1: KCNG1 (parent)
chain: LFVTVTAVNLSVSTLPSLREEEEQ

Variants of: B1
Assay: protein stability index of a GFP-peptide fusion (GPS, HEK-293T) (PSI 1-6); higher = more stable
Details: c terminus: a fixed tail appended
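Also: lentivirally expressed fusions sorted by FACS into six bins by GFP to DsRed ratio, PSI derived from sequencing read proportions per bin multiplied by bin number.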

Question: For V3Q, which protein stability index is on record?
Answer: 3.58

Question: With R19L as the variant, how does the protein stability index read?
Answer: 2.85

Question: Which protein stability index does the source give for V5K here?
Answer: 3.75

From the supplement of paper PMC10567573
